Measured values: PMC9741607, “Cryo-electron tomography reveals structural insights into the membrane remodeling mode of dynamin-like EHD filaments” (Nature Communications, 2022)

Target: the molecule itself
Assay: cryo-EM structure; cryo-electron tomography and subtomogram averaging of EHD4^ΔN filaments on membrane tubes (liposomes of 50% Folch extract, 40% phosphatidylethanolamine, 10% cholesterol) with AMPPNP; pseudo-atomic model by rigid-body and flexible fitting

B1: mouse EHD4 (residues 22-541, EHD4^ΔN) (domain or fragment, UniProt Q9EQP2 22-541, looked up)
chain: QTVTGGLRSLYQRKVLPLEEAYRFHEFHSPALEDADFENKPMILLVGQYSTGKTTFIRYLLEQDFPGMRIGPEPTTDSFIAVMYGETEGSTPGNALVVDPKKPFRKLSRFGNAFLNRFMCSQLPNQVLKSISIIDSPGILSGEKQRISRGYDFCQVLQWFAERVDRIILLFDAHKLDISDEFSEAIKAFRGQDDKIRVVLNKADQVDTQQLMRVYGALMWSLGKVINTPEVLRVYIGSFWAQPLQNTDNRRLFEAEAQDLFRDIQSLPQKAAVRKLNDLIKRARLAKVHAYIISYLKKEMPNMFGKENKKRELIYRLPEIYVQLQREYQISAGDFPEVKAMQEQLENYDFTKFHSLKPKLIEAVDNMLTNKISSLMGLISQEEMNMPTQMVQGGAFDGTTEGPFNQGYGEGAKEGADEEEWVVAKDKPVYDELFYTLSPINGKISGVNAKKEMVTSKLPNSVLGKIWKLADCDCDGMLDEEEFALAKHLIKIKLDGYELPNSLPPHLVPPSHRKSLPKAD
notes: Eps15-homology domain containing protein 4 (EHD4), mouse, amino acids 22-541; N-terminal residues deleted; The fitted model covers residues 22-535; The His6 tag was removed with PreScission protease; also called N-terminal deletion construct of mouse EHD4; EHD4/Pincher; source: E. coli BL21(DE3)-Rosetta2, purified (NiNTA, Superdex 200); not shown: His6, N-terminal, cleaved
binding result: binds
